Results on nine molecules are retold here after patent US20170002084A1 (VET THERAPEUTICS, published 2017).

Residue numbers refer to the chain shown, from its start.

First the molecules themselves.
B1: anti-canine CD20 antibody CD20-2 (VET305) (antibody)
heavy: QVQLQQSRAELVRPGASVTLSCKPSGYTFTDYEVHWVKQTPVHGLEWIGAIDPETGGTADNQKFKGKAILTADKSSSTAYMELRSLTSEDSAVYYCTNFVDVWGTGTTVTVSSASTTAPSVFPLAPSCGSQSGSTVALACLVSGYFPEPVTVSWNSGSLTSGVHTFPSVLQSSGLYSLSSMVTVPSSRWPSETFTCNVAHPASKTKVDKPVPKRENGRVPRPPDCPKCPAPEMLGGPSVFIFPPKPKDTLLIARTPEVTCVVVDLDPEDPEVQISWFVDGKQMQTAKTQPREEQFNGTYRVVSVLPIGHQDWLKGKQFTCKVNNKALPSPIERTISKARGQAHQPSVYVLPPSREELSKNTVSLTCLIKDFFPPDIDVEWQSNGQQEPESKYRTTPPQLDEDGSYFLYSKLSVDKSRWQRGDTFICAVMHEALHNHYTQKSLSHSPGK
light: DVVMSQSPSSLAVSVGEKVTMSCKSSQSLLYSGNQKNYLAWYQQKPGQSPRLLIYWASTRESGVPDRFTGSGSGTDFTLTISSVKAEDLAVFYCQQYYNYPLTFGGGTHLTVLGQPKASPSVTLFPPSSEELGANKATLVCLISDFYPSGVTVAWKADGSPITQGVETTKPSKQSNNKYAASSYLSLTPDKWKSHSSFSCLVTHEGSTVEKKVAPAECS
notes: also called Mab CD20-2
B2: anti-canine CD20 antibody CD20-5 (VET308) (antibody, V domains shown)
VH: QVQLKQSGAELVKPGASVKISCKASGYTFTDYYINWVKQRPGQGLEWIGKIGPRSGSIYYNEKFKGKATLTADKSSSTAYMQLRSLTSEDSAVYFCAVLKWGQGTLVTVSS
VL: not shown
notes: also called Mab CD20-5
B3: anti-canine CD20 antibody CD20-6 (VET309) (antibody, V domains shown)
VH: EIQLQQSGAELVRPGASVTLSCKASGYTFTDYEMHWVKQTPVHGLEWIGGIDPETGGTAYNQKFKGKAILTADKSSSTVYMELRSLTSEDSAVYYCTRDYGTSGYWGQGTLVTVSS
VL: DVVVTQTPLSLPVSFGDQVSISCRSSQSLANSYGNTYLSWYLHKPGQSPQLLIYGISNRFSGVPDRFSGSGSGTDFTLKISRVEAEDLGVYFCSQSTHVPWTFGGGTHLTVLG
notes: also called Mab CD20-6
B4: VET 124 × VET 237 (antibody, V domains shown)
VH: EVQLQQSVAELVRPGASVTLSCKASGYTFTDYEMHWVKQTPVHGLEWIGEIDPETGGTAYNQKFKGKAILTADKSSSTAYMELRSLTSEDSAVYYCTEYAMDYWGQGTLVTVSS
VL: not shown
notes: also called VET124 x VET237
B5: VET 135 × VET 260 (antibody)
heavy: B1 heavy
light: B1 light with G106A, H109K, T111E, V112L, L113K
notes: CD20-2 variable domains on canine constant domains; light chain differs from VET305 (which has the FR4T light chain); also called VET135 x VET260
B6: VET 133 × VET 260 (antibody, V domains shown)
VH: QVQLQQSRAELVRPGASVTLSCKPSGYTFTDYEVHWVKQTPVHGLEWIGAIDPETGGTADNQKFKGKAILTADKSSSTAYMELRSLTSEDSAVYYCTNFVDVWGTGTTVTVSS
VL: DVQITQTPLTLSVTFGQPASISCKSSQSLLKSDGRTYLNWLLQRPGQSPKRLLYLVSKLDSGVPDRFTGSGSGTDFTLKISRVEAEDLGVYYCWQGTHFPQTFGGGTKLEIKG
notes: Mixed pairing: CD20-1 light chain with CD20-2 heavy chain; also called VET133 x VET260
B7: VET 135 × VET 257 (antibody, V domains shown)
VH: EIQLQQSGAELVKPGASVKISCKASGYTFTDYYINWVKQRPGQGLEWIGKIGPGSGRTYYNEKFKGKATLTADKSSSTAYIQISSLTSEDSAVYFCAVLSWGQGTTLTVSS
VL: DVVMSQSPSSLAVSVGEKVTMSCKSSQSLLYSGNQKNYLAWYQQKPGQSPRLLIYWASTRESGVPDRFTGSGSGTDFTLTISSVKAEDLAVFYCQQYYNYPLTFGAGTKLELKG
notes: Mixed pairing: CD20-2 light chain with CD20-1 heavy chain; also called VET135 x VET257
B8: VET 133 × VET 257 (antibody, V domains shown)
VH: B7 VH
VL: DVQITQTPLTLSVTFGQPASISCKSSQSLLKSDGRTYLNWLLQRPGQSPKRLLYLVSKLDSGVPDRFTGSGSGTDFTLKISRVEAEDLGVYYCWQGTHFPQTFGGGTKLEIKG
notes: Light chain vector VET133 co-transfected with heavy chain vector VET257 in 293F cells; mouse variable domains on canine constant domains; also called VET133 x VET257
B9: anti-canine CD20 antibody CD20-1 (antibody, V domains shown)
VH: B7 VH
VL: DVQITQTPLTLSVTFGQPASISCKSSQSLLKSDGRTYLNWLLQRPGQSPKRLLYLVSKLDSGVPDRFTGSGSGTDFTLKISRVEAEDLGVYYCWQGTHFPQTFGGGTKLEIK
notes: called 'recombinant anti-canine CD20 antibody'; also called Mab CD20-1

The target in one experiment is T1, Feline CD20 (feline).
T1 construct: also called recombinant feline CD20
T1 chain: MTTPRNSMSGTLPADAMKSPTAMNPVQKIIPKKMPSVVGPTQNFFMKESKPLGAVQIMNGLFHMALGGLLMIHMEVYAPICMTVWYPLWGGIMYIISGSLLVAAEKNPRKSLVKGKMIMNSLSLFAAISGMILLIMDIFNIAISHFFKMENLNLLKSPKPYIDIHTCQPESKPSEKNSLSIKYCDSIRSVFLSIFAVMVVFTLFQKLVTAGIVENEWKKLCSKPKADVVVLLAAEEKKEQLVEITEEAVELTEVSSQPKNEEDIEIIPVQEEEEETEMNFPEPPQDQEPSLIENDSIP
As to the kind of experiment: FACS on mammalian cells expressing recombinant feline CD20, antibody 2.5 µg/mL. The protocol:
(§1) In the present example, the antibody variants (2.5 μg/mL) are incubated with mammalian cells expressing the recombinant feline CD20 or canine CD20 or control cells. The amount of bound antibody is assessed by detection with a fluorescent-labeled reporter antibody reagent. Several controls are utilized to determine the background fluorescence: (i) CD20 expressing cells are incubated with the conjugated secondary antibody with an isotype antibody, and (ii) Control cells are incubated with the anti-CD20 antibodies.
(§2) The results reported as mean fluorescence units evidence effective binding of the antibodies CD20-2, CD20-5, and CD20-6 to the recombinant canine CD20 expressed in HEK cells. Only CD20-2 and CD20-5 antibodies bind feline CD20 expressed in mammalian cells.
As to B1, the mean fluorescence units was determined as 2210 mean fluorescence units.
Same read-out and setting: the value for B2 was 2048 mean fluorescence units.
For the molecule B3, the mean fluorescence units amounted to 60 mean fluorescence units.

Another experiment concerns the target T2, Canine CD20 (canine, UniProt Q3C2E2 1-297).
T2 construct: also called recombinant canine CD20; dog CD20
T2 chain: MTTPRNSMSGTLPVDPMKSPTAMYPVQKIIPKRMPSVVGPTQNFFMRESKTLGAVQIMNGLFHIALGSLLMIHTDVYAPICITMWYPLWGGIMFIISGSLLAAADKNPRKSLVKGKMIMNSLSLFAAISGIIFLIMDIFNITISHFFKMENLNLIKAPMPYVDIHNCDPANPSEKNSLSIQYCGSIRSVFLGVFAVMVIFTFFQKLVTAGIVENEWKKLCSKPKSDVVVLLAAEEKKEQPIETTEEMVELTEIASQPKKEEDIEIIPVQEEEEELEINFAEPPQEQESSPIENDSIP
As to the kind of experiment: FACS on canine PBMC, 2 µg antibody, FITC anti-dog IgG. The procedure: In the present example, the antibody variants are incubated with the CD20 positive cells and the amount of bound antibody is assessed following incubation with a fluorescent-labeled reporter reagent. The reporter is thereafter measured by FACS.
Briefly, for each assay, one million cells of Peripheral Blood Mononuclear Cell (PBMC) isolated from whole blood from a normal dog by standard techniques were resuspended in FACS buffer (PBS+2% FBS). Two μg of the primary antibody are added to the cells and the samples were incubated at 4° C. for 1 h. The primary antibody is provided as supernatants from transfected cells with recombinant antibody constructs or from purified antibody preparation. The mouse anti-dog CD21 mAb (Serotec) recognizing B-lymphocytes is added to the cells as a control to estimate the percentage of B-lymphocytes in a given sample. One ml of FACS buffer are added and cells are spun down for 3 min at 800×g in Eppendorf microcentrifuge. The cells are washed with 1 mL FACS buffer and spun down again. The secondary antibodies such as fluorescein-isothiocynate (FITC) conjugated goat anti-mouse kappa (mFITC, Jackson ImmunoResearch), or the FITC-conjugated goat anti-dog IgG (H+L) (dFITC, Bethyl Laboratories) are added in 100 μL of FACS buffer supplemented with 1% BSA to appropriate tubes and the tubes were incubated at 4° C. for 30 minutes. The wash steps are repeated. The cells are then resuspended in 500 μL FACS buffer and transferred into 12×75 mm polystyrene test tubes. The cells are analyzed by FACS with a FacScan cytometer using the CellQuest software (Becton-Dickenson). Analysis gates are set on the live lymphocyte population based on typical forward and side scatter characteristics. Several controls are utilized to determine the background fluorescence: (i) one tube of cells is incubated with the FITC-conjugated secondary antibody without the primary antibody, and (ii) one tube of cells is incubated with PBS only.
The overall percentage of B-cell subset in this sample is estimated to be approximately 12% based on the binding of the anti-dog CD21 mab control. The results of Table 3 evidence effective binding of the antibody variants to lymphocytes.
With B4, the “% Lymphocytes” value is 13% and the “Mean Fluorescence” value was determined as 2660.
As to B5, the “% Lymphocytes” value came to 12.7% and the “Mean Fluorescence” value is 2660.
Regarding B6, the “% Lymphocytes” value turned out to be 13.7% and the “Mean Fluorescence” value came to 2910.
Regarding B7, the “% Lymphocytes” value amounted to 8.33% and the “Mean Fluorescence” value is 2500.
The like results for B8 were, in that order, 12% and 3170.

Another experiment addresses T2, Canine CD20. As to the kind of experiment: FACS on CHO cells expressing recombinant canine CD20.
As to B9, the Kd was 1 nM.

In another experiment the target is T1, Feline CD20. As to the kind of experiment: FACS on mammalian cells expressing recombinant feline CD20. The procedure:
as §1, §2
In the case of B3, the binding result was “no binding (tested: 2.5 µg/mL)”.

A further experiment has as its target T2, Canine CD20. As to the kind of experiment: FACS on HEK cells expressing recombinant canine CD20, antibody 2.5 µg/mL. The protocol: as §1, §2
Take B1: the mean fluorescence units amounted to 2340 mean fluorescence units.
As to B2, the mean fluorescence units was 2770 mean fluorescence units.
Consider B3, for which the mean fluorescence units is 2110 mean fluorescence units.

The next experiment deals with T2, Canine CD20. As to the kind of experiment: FACS on CHO cells expressing recombinant canine CD20. The source holds these as a separate data set. The protocol:
The antibody variants of the present invention are compared for their binding affinity to canine CD20. Binding affinity is assessed by measuring binding to the recombinant canine CD20 expressed in CHO cells by FACS analysis as described above.
For the molecule B1, the Kd turned out to be 8.85 nM.
Regarding B2, the Kd was 1.21 nM.
With B3, the Kd came out at 63.4 nM.

For another experiment, the target named is T2, Canine CD20. As to the kind of experiment: cell-based or functional assay.
Regarding B1, the “Reduction (%) of cell proliferation of lymphoma cells” value was determined as 55%.
Still for that read-out and setting: the value for B2 was 60.1%; that for B3 was 27.6%.

One may read the Kd as a measure of binding affinity in units of concentration.
